Experimental data taken from patent publication US20240262922A1 (Merck KGaA, published 2024).
Read-outs that look alike come from different tables or passages of the source.

T1: AVI-GST-His6-hOX40L (human, UniProt P23510 51-183)
T1 sequence: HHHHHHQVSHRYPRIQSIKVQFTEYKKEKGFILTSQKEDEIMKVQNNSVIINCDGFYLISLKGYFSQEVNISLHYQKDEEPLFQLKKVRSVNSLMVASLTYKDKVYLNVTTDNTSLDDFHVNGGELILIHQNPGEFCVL

T2: recombinant human OX40L protein (R&D Systems, cat. #1054-OX) (human, UniProt P23510 51-183)
T2 sequence: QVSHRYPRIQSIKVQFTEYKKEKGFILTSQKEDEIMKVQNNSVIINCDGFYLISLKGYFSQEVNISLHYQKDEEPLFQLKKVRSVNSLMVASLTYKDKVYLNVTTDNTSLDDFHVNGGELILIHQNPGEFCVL

T3: mouse OX40L (mouse, UniProt P43488 51-198, limits assumed)
T3 sequence: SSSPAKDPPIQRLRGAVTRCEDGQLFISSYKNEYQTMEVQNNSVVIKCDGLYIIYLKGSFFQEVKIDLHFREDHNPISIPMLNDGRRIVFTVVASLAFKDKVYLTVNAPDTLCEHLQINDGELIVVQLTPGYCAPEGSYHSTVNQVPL

T4: recombinant cynomolgus monkey OX40L (Novoprotein cat. #CP72) (cynomolgus monkey, UniProt P23510 51-183 (human entry), limits assumed)
T4 construct: Bought protein; also called cynomolgus OX40L
T4 chain: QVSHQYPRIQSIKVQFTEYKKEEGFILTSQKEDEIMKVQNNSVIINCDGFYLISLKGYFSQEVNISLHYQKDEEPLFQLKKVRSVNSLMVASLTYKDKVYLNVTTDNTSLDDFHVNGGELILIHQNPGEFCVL


Key:
[1] = target: T1, AVI-GST-His6-hOX40L; test: cell-based or functional assay
[2] = target: T2, recombinant human OX40L protein (R&D …); test: cell-based or functional assay
[3] = target: T2, recombinant human OX40L protein (R&D …); test: SPR steady state, Biacore T200; OX40L immobilised on CM5, antibody in solution
Description: (§1) Recombinant OX40L proteins (human OX40L protein, R&D systems, cat. #1054-OX; cynomolgus monkey OX40L, Novoprotein cat. #CP72) were immobilized onto Biacore CM5 sensor chips and anti-OX40L antibodies were bound to this surface at a range of concentrations. The response at steady state was measured with a Biacore T200 instrument (GE Healthcare) and plotted against the concentration of antibody and fit to a 1:1 binding model. The steady state KD was determined as the antibody concentration at a response equal to half the maximal response (Rₘₐₓ).
As with the IgG clones, binding affinity to human OX40L was determined for all twelve FcFabs using steady state affinity assay as described in section 1.1.7 of Example 1. […]

[4] = target: T2, recombinant human OX40L protein (R&D …); test: SPR steady state affinity to human OX40L
Description: as §1

[5] = target: T1, AVI-GST-His6-hOX40L; test: cell-based or functional assay; remark: listed apart in the source
[6] = target: T2, recombinant human OX40L protein (R&D …); test: cell-based or functional assay; remark: listed apart in the source
[7] = target: T2, recombinant human OX40L protein (R&D …); test: SPR steady state, Biacore T200; OX40L immobilised on CM5, antibody in solution; remark: listed apart in the source
Description: as §1

[8] = target: T1, AVI-GST-His6-hOX40L; test: cell-based or functional assay; remark: listed apart in the source
[9] = target: T1, AVI-GST-His6-hOX40L; test: cell-based or functional assay; remark: listed apart in the source
[10] = target: T1, AVI-GST-His6-hOX40L; test: cell-based or functional assay; remark: listed apart in the source
[11] = target: T3, mouse OX40L; test: flow cytometry on CHO-S cells / ELISA on recombinant protein (sentence does not say which)
[12] = target: T1, AVI-GST-His6-hOX40L; test: cell-based or functional assay; remark: listed apart in the source
[13] = target: T2, recombinant human OX40L protein (R&D …); test: cell-based or functional assay; remark: listed apart in the source
[14] = target: T4, recombinant cynomolgus monkey OX40L …; test: flow cytometry on CHO-S-OX40L cells / ELISA on recombinant OX40L (sentence does not say which)
[15] = target: T2, recombinant human OX40L protein (R&D …); test: SPR steady state, Biacore T200; OX40L immobilised on CM5, antibody in solution; remark: listed apart in the source
Description: as §1
Steady state affinity assay was performed as described in section 1.1.7 of Example 1.

[16] = target: T2, recombinant human OX40L protein (R&D …); test: SPR steady state, Biacore T200; OX40L immobilised on CM5, FcFab in solution
How it was run: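 Human OX40L was immobilised on a CM5 chip, and FcFabs or IgGs flowed over at a range of concentrations. Steady-state response was plotted against concentration and fitted to a 1:1 model. KD was taken as the concentration giving half Rmax.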

| OX40L neutralization/OX40-HEK Reporter IC50 [1] [nM] | Primary T cell activation assay IC50 [2] [nM] | Kd [4] [nM] | OX40L neutralization/OX40-HEK Reporter IC50 [5] [nM] | Primary T cell activation assay IC50 [6] [nM] | Kd [7] [nM] | IC50 (read off the curve) [8] [nM] | IC50 (read off the curve) [9] [nM] | IC50 (read off the curve) [10] [nM] | binding result [11] | OX40L neutralization/OX40-HEK Reporter IC50 [12] [nM] | Primary T cell activation assay IC50 [13] [nM] | binding result [14] | Kd [15] [nM] | Binder | further results |
| --- | --- | --- | --- | --- | --- | --- | --- | --- | --- | --- | --- | --- | --- | --- | --- |
|  |  | 15 | 6.6 | 9.3 | 15 | ~4 | ~3 | ~6 |  |  |  |  |  | Ref2_Anti_OX40L (antibody, human IgG1, kappa, V domains shown) VH: EVQLLESGGGLVQPGGSLRLSCAASGFTFNSYAMSWVRQAPGKGLEWVSIISGSGGFTYYADSVKGRFTISRDNSRTTLYLQMNSLRAEDTAVYYCAKDRLVAPGTFDYWGQGALVTVSS VL: DIQMTQSPSSLSASVGDRVTITCRASQGISSWLAWYQQKPEKAPKSLIYAASSLQSGVPSRFSGSGSGTDFTLTISSLQPEDFATYYCQQYNSYPYTFGQGTKLEIKR |  |
|  |  |  |  |  |  |  | ~9 |  | no binding | 7.5 | 16.7 | binds | 16.6 | 97G07 (IgG) (antibody) heavy: not shown light: YYELTQPLSVSVALGQTARIPCGGNNIENKNVHWYQQKPGQAPVLVIYRDSNRPSGIPERFSGSNSGNTATLSINRAQAGDEADYYCQVWDSNTVIFGGGTKVTVLGQPKAAPSVTLFPPSSEELQANKATLVCLISDFYPGAVTVAWKADSSPVKAGVETTTPSKQSNNKYAASSYLSLTPEQWKSHKSYSCQVTHEGSTVEKTVAPTECS |  |
|  |  |  |  |  |  |  | ~5 |  | no binding | 5.2 | 20.9 | binds | 12.7 | 67B06 (IgG) (antibody, also called 67B06 (IgG format)) heavy: not shown light: SYELTQPLSVSVALGQTARMTCGGSDIENKNVHWYQQKPGQAPVLVIHRDNNRPSGIPERFSGSNSGNTATLTISRAQAGDEADYYCQVRDSNIVVFGGGTKLTVLGQPKAAPSVTLFPPSSEELQANKATLVCLISDFYPGAVTVAWKADSSPVKAGVETTTPSKQSNNKYAASSYLSLTPEQWKSHKSYSCQVTHEGSTVEKTVAPTECS |  |

Further lines, the binder ahead of its results:

| Binder | OX40L neutralization/OX40-HEK Reporter IC50 [1] [nM] | Primary T cell activation assay IC50 [2] [nM] | Kd [4] [nM] | OX40L neutralization/OX40-HEK Reporter IC50 [5] [nM] | Primary T cell activation assay IC50 [6] [nM] | Kd [7] [nM] | IC50 (read off the curve) [8] [nM] | IC50 (read off the curve) [9] [nM] | IC50 (read off the curve) [10] [nM] | binding result [11] | OX40L neutralization/OX40-HEK Reporter IC50 [12] [nM] | Primary T cell activation assay IC50 [13] [nM] | binding result [14] | Kd [15] [nM] | further results |
| --- | --- | --- | --- | --- | --- | --- | --- | --- | --- | --- | --- | --- | --- | --- | --- |
| 84E11 (FcFab) (antibody) heavy: EPKSSDKTHTCPPCPAPPVAGPSVFLFPPKPKDTLMISRTPEVTCVVVDVSHEDPEVKFNWYVDGVEVHNAKTKPREEQYNSTYRVVSVLTVLHQDWLNGKEYKCAVSNKALPSSIEKTISKAKGQPREPQVYTLPPSREEMTKNQVSLTCLVKGFYPSDIAVEWESNGQPENNYKTTPPVLDSDGSFFLYSKLTVDKSRWQQGNVFSCSVMHEALHNHYTQKSLSLSPGAGGGGSGGGGSGGGGSQLQLQESGPGLVKPSETLSLTCTVSGGSISSGSFYWGWIRQPPGKGLEWIGTIYYSGSTYYNPSLKSRVAISVDTSKNQFYLNLNFVTAADTAVYHCARERSSSWYPFDYWGQGTLVTVSSASTKGPSVFPLAPSSKSTSGGTAALGCLVKDYFPEPVTVSWNSGALTSGVHTFPAVLQSSGLYSLSSVVTVPSSSLGTQTYICNVNHKPSNTKVDKRVEPKSC light: SSELTQDPAVSVALGQTVRITCQGDSLRNYFANWYQQKPGQAPVLVIYGKNNRPSGIPDRFSGSSSGNTASLTITGAQAEDEADYYCNSRDSSGYHVVFGGGTKLTVLGQPKAAPSVTLFPPSSEELQANKATLVCLISDFYPGAVTVAWKADSSPVKAGVETTTPSKQSNNKYAASSYLSLTPEQWKSHKSYSCQVTHEGSTVEKTVAPTECS | 57.2 | 15.2 |  |  |  |  |  |  |  |  |  |  |  |  | binding result [3]: no binding |
| Ref1_Anti-OX40L (US Pat. No. 9,139,653) (antibody, V domains shown) VH: EVQLVESGGGLVQPGGSLRLSCAASGFTFSNYAMNWVRQAPGKGLEWVSTISGSGGATRYADSVKGRFTISRDNSRNTVYLQMNSLRVEDTAVFYCTKDRLIMATVRGPYYYGMDVWGQGTTVTVSS VL: DIQMTQSPSSLSASVGDRVTITCRASQSISSYLNWYQQKPGKAPNLLIYAASSLQSGVPSRFSGSGSETDFTLTISSLQPEDFATYYCQQSHSVSFTFGPGTKVDIK |  |  | 31.9 | 7.3 | 5.7 | 31.9 | ~5 |  |  |  |  |  |  |  |  |
| 67B06 (FcFab) (antibody) heavy: EPKSSDKTHTCPPCPAPPVAGPSVFLFPPKPKDTLMISRTPEVTCVVVDVSHEDPEVKFNWYVDGVEVHNAKTKPREEQYNSTYRVVSVLTVLHQDWLNGKEYKCAVSNKALPSSIEKTISKAKGQPREPQVYTLPPSREEMTKNQVSLTCLVKGFYPSDIAVEWESNGQPENNYKTTPPVLDSDGSFFLYSKLTVDKSRWQQGNVFSCSVMHEALHNHYTQKSLSLSPGAGGGGSGGGGSGGGGSQLQLQESGPGLVKPSETLSLTCSVSGGSISTSSYYWGWIRQPPGKGLEWSGSIYYSGSTYYRPSLQGRATISVDTSKNQFSLKLTSVTAADTAVYYCARHRGSYFFDIWGLGTLVTVSSASTKGPSVFPLAPSSKSTSGGTAALGCLVKDYFPEPVTVSWNSGALTSGVHTFPAVLQSSGLYSLSSVVTVPSSSLGTQTYICNVNHKPSNTKVDKRVEPKSC light: SYELTQPLSVSVALGQTARMTCGGSDIENKNVHWYQQKPGQAPVLVIHRDNNRPSGIPERFSGSNSGNTATLTISRAQAGDEADYYCQVRDSNIVVFGGGTKLTVLGQPKAAPSVTLFPPSSEELQANKATLVCLISDFYPGAVTVAWKADSSPVKAGVETTTPSKQSNNKYAASSYLSLTPEQWKSHKSYSCQVTHEGSTVEKTVAPTECS | 5.5 | 7.2 |  |  |  |  |  |  | ~6 |  |  |  |  |  | Kd [16]: 20.3 nM |
